# Data reported in paper PMC2955198 (Cell, 2010).
# “And” between values parts separate entries of the source, which are not always exact repeats. Equal values may be shown once.
# T1: Dsn1 (subunit of the purified MIND complex) (S. cerevisiae, UniProt P40568 1-576)
# T1 sequence (looked up): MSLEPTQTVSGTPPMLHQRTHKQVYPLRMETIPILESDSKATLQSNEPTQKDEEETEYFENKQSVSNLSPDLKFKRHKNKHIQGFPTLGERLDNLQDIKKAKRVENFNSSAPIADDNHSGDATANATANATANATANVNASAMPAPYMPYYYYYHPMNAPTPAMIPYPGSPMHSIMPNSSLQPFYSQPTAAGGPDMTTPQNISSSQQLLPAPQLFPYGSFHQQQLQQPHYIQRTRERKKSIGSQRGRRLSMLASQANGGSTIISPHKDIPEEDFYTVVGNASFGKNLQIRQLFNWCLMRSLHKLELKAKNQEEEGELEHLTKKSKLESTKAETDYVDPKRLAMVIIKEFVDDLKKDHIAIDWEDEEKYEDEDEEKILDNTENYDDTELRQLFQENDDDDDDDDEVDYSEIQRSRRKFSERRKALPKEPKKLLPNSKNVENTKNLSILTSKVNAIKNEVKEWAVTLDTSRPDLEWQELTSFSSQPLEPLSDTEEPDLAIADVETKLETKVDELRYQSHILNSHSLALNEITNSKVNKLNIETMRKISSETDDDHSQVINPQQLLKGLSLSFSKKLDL
# B1: Mde4 1-231 (domain or fragment)
# chain: MSTISTSTDSKLDNLGLSVTSRRNQILFYLSKALNLAHLLRSDSLQKSFLDALKQSATDSELLHKNLDEIKFLQNEKLNNEKLLEQEQNEANDYRLKVERLEHKISDYVQEINSLNSQLQIQKSNPEKHEDAVSQNRLRGSLDTVSSPSKTHKANKDEKATRLHLIIANLKKALKEKDAEVLNLQSHVSSKESELDRFKIKLETEESNWKVRLQVLESKLATQDRKLRMQK
# B2: Lrs4 1-130 (domain or fragment, S. cerevisiae, UniProt Q04087 1-130, looked up)
# chain: MTTLLQLLSNYYKAKLDSERIYNEYVQSQYEFASLDKLNNNKGDPKKVVDETLFLQRQIAQLNKQLQLSFQENEKLLSVQKNQKALYQSKLSSKDAFIDDLKLKLKVEQISVDKHNKERTPSTGRDEQQR
# B3: Mde4 1-125 (domain or fragment)
# chain: MSTISTSTDSKLDNLGLSVTSRRNQILFYLSKALNLAHLLRSDSLQKSFLDALKQSATDSELLHKNLDEIKFLQNEKLNNEKLLEQEQNEANDYRLKVERLEHKISDYVQEINSLNSQLQIQKSN
# B4: Mde4 full-length (natural protein)
# chain: MSTISTSTDSKLDNLGLSVTSRRNQILFYLSKALNLAHLLRSDSLQKSFLDALKQSATDSELLHKNLDEIKFLQNEKLNNEKLLEQEQNEANDYRLKVERLEHKISDYVQEINSLNSQLQIQKSNPEKHEDAVSQNRLRGSLDTVSSPSKTHKANKDEKATRLHLIIANLKKALKEKDAEVLNLQSHVSSKESELDRFKIKLETEESNWKVRLQVLESKLATQDRKLRMQKKSTERKSLLVSPRVSSPKLFSPSKQAIMGTRQPNATSGSPLSVTPFLQKTSTSIGLSSSPPQSSPSAQSSQPFSRDKYPHSMTVSPSNARYLKKHLDDTIPSNVSDINHNDHLKIPQSPSSLSPSKIPIRKKRKLKDTVSNCEFTEEDSESSFLLETIQPTKSTLRRSISPLKKRNDEINELKKGFTMKK
# B5: Csm1 1-181 (domain or fragment, S. cerevisiae, UniProt P25651 1-181, looked up)
# chain: MDPLTVYKNSVKQQIDSADLLVANLVNENFVLSEKLDTKATEIKQLQKQIDSLNAQVKELKTQTSQQAENSEVIKDLYEYLCNVRVHKSYEDDSGLWFDISQGTHSGGSSDDYSIMDYKLGFVKGQAQVTEVIYAPVLKQRSTEELYSLQSKLPEYLFETLSFPLSSLNQFYNKIAKSLNK
# B6: Nnf1 (subunit of the purified MIND complex) (natural protein, S. cerevisiae, UniProt P47149 1-201, looked up)
# chain: MVNSHGIRYIRLKQVFNRALDQSISKLQSWDKVSSCFPQYVNSKQGAINVANCQRQLTEFWTELCQREFKEIMEERNVEQKLNELDELILEAKERYTDRDQDEVNKGPAIDELSSKELVECHLYSQRMHAIHEIDERLAKVNEMNDQLAQELKDLETQVEVEKNEIGKMYDEYLGSHTDQPANVLLVQSLNDMVLELKENY
# B7: S. cerevisiae Csm1 full-length (natural protein, UniProt P25651 1-190, looked up)
# chain: MDPLTVYKNSVKQQIDSADLLVANLVNENFVLSEKLDTKATEIKQLQKQIDSLNAQVKELKTQTSQQAENSEVIKDLYEYLCNVRVHKSYEDDSGLWFDISQGTHSGGSSDDYSIMDYKLGFVKGQAQVTEVIYAPVLKQRSTEELYSLQSKLPEYLFETLSFPLSSLNQFYNKIAKSLNKKREKKDETE
# B8: Csm1 69-190 (domain or fragment, S. cerevisiae, UniProt P25651 69-190, looked up)
# chain: ENSEVIKDLYEYLCNVRVHKSYEDDSGLWFDISQGTHSGGSSDDYSIMDYKLGFVKGQAQVTEVIYAPVLKQRSTEELYSLQSKLPEYLFETLSFPLSSLNQFYNKIAKSLNKKREKKDETE
# B9: Mtw1 (subunit of the purified MIND complex) (natural protein, S. cerevisiae, UniProt P39731 1-289, looked up)
# chain: MSAPTMRSTSILTEHLGYPPISLVDDIINAVNEIMYKCTAAMEKYLLSKSKIGEEDYGEEIKSGVAKLESLLENSVDKNFDKLELYVLRNVLRIPEEYLDANVFRLENQKDLVIVDENELKKSEEKLREKVNDVELAFKKNEMLLKRVTKVKRLLFTIRGFKQKLNELLKCKDDVQLQKILESLKPIDDTMTLLTDSLRKLYVDSESTSSTEEVEALLQRLKTNGKQNNKDFRTRYIDIRTNNVLRKLGLLGDKEDEKQSAKPDARTQAGDIVSIDIEEPQLDLLDDVL
# B10: Mde4 1-77 (domain or fragment)
# chain: MSTISTSTDSKLDNLGLSVTSRRNQILFYLSKALNLAHLLRSDSLQKSFLDALKQSATDSELLHKNLDEIKFLQNEK
# B11: Lrs4 1-102 (domain or fragment, S. cerevisiae, UniProt Q04087 1-102, looked up)
# chain: MTTLLQLLSNYYKAKLDSERIYNEYVQSQYEFASLDKLNNNKGDPKKVVDETLFLQRQIAQLNKQLQLSFQENEKLLSVQKNQKALYQSKLSSKDAFIDDLK
# B12: Lrs4 full-length (natural protein, S. cerevisiae, UniProt Q04087 1-347, looked up)
# chain: MTTLLQLLSNYYKAKLDSERIYNEYVQSQYEFASLDKLNNNKGDPKKVVDETLFLQRQIAQLNKQLQLSFQENEKLLSVQKNQKALYQSKLSSKDAFIDDLKLKLKVEQISVDKHNKERTPSTGRDEQQRNSKAAHTSKPTIHLLSPIVNRDKPNNQTNDRGGNDPDSPTSQRRSRGLRSLLSSGKNTIFDSISKNLDDEINENAHIRNDTTSSKIAGKSPSRLSALQKSPELRKERNNMILKEHILRSKDDQNITSSRKLDNIELSSIGDSTAMTSRSSTVNANDILGNEENDGITKLKRVNKLTSSPVKRDCSTNKKRKLTKQRIATLPNSDEELSNNLNVDEFV
# Columns and labels:
# Pcs1 85-222 (S. pombe) = Pcs1 85-222 (S. pombe) (UniProt O13684); experiment: AUC
# [1] = target: S. pombe Pcs1 full-length (S. pombe) (UniProt O13684); experiment: AUC
# [2] = target: S. pombe Pcs1 full-length (S. pombe) (UniProt O13684); experiment: AUC; remark: listed apart in the source
# [3] = target: B7; experiment: AUC
# AUC = target: the molecule itself; experiment: AUC
# [4] = target: B9; experiment: co-purification of a recombinant complex
# [5] = target: T1, Dsn1 (subunit of the purified MIND …); experiment: co-purification of a recombinant complex
# Csm1 1-181 = target: B5; experiment: AUC
# Chain of S. pombe Pcs1 full-length (S. pombe) (O13684 whole entry): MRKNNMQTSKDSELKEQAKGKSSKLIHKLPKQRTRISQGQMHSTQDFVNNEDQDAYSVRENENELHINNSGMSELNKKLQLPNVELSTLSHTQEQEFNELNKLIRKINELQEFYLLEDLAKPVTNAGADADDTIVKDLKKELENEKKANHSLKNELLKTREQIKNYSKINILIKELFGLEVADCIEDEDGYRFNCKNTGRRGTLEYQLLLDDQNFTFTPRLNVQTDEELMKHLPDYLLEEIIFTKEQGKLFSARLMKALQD
molecule,measurement,setting,value
Pcs1 85-222 (from UniProt O13684 85-222) (domain or fragment),stoichiometry N,Pcs1 85-222 (S. pombe),2
S. pombe Pcs1 full-length (from UniProt O13684 1-261) (natural protein),stoichiometry N,[1],2
B1,stoichiometry N (copies of Mde4 in the complex),[2],2
same,stoichiometry N (copies of Pcs1 in the complex),[2],4
B2,stoichiometry N,[3],4 copies of Csm1 in the complex and 2 copies of Lrs4 in the complex
B3,stoichiometry N (copies of Mde4 in the complex),[2],2
same,stoichiometry N (copies of Pcs1 in the complex),[2],4
B4,stoichiometry N (copies of Mde4 in the complex),[2],2
same,stoichiometry N (copies of Pcs1 in the complex),[2],4
B5,stoichiometry N,AUC,2
B6,binding result,[4],binds
B7,stoichiometry N,AUC,2
B8,stoichiometry N,AUC,2
B9,binding result,[5],binds
"TTLLQLLSNYYKAKLDSERIYNEYVQSQY (peptide, UniProt Q04087 2-30, looked up) [peptide containing Lrs4 residues 2-30]",stoichiometry N,Csm1 1-181,4 copies of Csm1 in the complex and 2 copies of Lrs4 in the complex
B10,stoichiometry N (copies of Mde4 in the complex),[2],2
same,stoichiometry N (copies of Pcs1 in the complex),[2],4
B11,stoichiometry N,[3],4 copies of Csm1 in the complex and 2 copies of Lrs4 in the complex
B12,stoichiometry N,[3],4 copies of Csm1 in the complex and 2 copies of Lrs4 in the complex
